Test results from patent US6410248.

Molecular target: Zif268 zinc fingers 1-3 (wild type) (UniProt P08046 SEQ:1-90)
Experiment: EMSA; 15 mM Hepes-NaOH pH 7.9, 50 mM KCl, 50 mM K glutamate, 50 mM K acetate, 5 mM MgCl2, 20 uM ZnSO4, no competitor DNA

B1: Zif268 site (dsDNA)
DNA 1: CCAGTAGCGGGGGCGTCCTCG
DNA 2: CGAGGACGCCCCCGCTACTGG
- Kd: 0.01 nM
